Values of other authors in article PMC6783463.

Molecular target: PTH (15-34) 15-34 (Homo sapiens) (UniProt P01270)
Conditions: cited from earlier work

UniProt P01270, sequence (P01270 15-34): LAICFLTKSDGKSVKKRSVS

For PTH1R ECD (from UniProt Q03431), the Kd is given as 1000 nM.
